Assay results from US20190177431A1 (FUDAN UNIVERSITY, published 2019).
Like-named read-outs stand apart in the source and are kept apart here.

T1: murine TF (B16-F10 cells) (murine, UniProt P20352 29-294)
T1 construct: whole, on cells
T1 sequence (looked up): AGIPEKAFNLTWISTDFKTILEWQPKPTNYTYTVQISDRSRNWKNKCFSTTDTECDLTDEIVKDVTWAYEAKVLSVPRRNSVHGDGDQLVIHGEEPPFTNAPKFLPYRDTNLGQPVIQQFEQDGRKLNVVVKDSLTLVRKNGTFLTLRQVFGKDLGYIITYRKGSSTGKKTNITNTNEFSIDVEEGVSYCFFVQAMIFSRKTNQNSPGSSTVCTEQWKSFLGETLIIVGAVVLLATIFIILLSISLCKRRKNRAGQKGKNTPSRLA


Legend:
[1] = molecular target: T2, human TF on the cell surface of tumor cells (human, UniProt P13726 33-295); experiment: cell-based or functional assay
[2] = molecular target: T2, human TF on the cell surface of tumor …; experiment: flow cytometry on U87MG cells
Procedure: (§1) The cells were washed with PBS twice to remove the unbound primary antibody, and the target cells were incubated with 200 μL PE-labeled secondary antibody (2 μg/mL) at 4° C. for 30 min. The cells were washed with PBS twice to remove the unbound secondary antibody, and finally the cells were re-suspended in 400 μL PBS.

[3] = molecular target: T2, human TF on the cell surface of tumor …; experiment: flow cytometry on BxPC-3 cells
Procedure: as §1

[4] = molecular target: T1, murine TF (B16-F10 cells); experiment: flow cytometry on B16-F10 cells
Source text: After preliminary screening, about 30 hybridoma cells were selected for secondary limiting dilution cloning, and then 6 antibodies were selected for large-scale expression and purification.

[5] = molecular target: T2, human TF on the cell surface of tumor …; experiment: flow cytometry on MDA-MB-231 cells
[6] = molecular target: T3, extracellular domain of human TF protein (human, UniProt P13726 34-251); experiment: ELISA, coated TF extracellular domain
T3 construct: range 34-251; Limits 34-251 are stated for the immunogen; also called the extracellular domain protein of TF; TF antigen
Procedure: (§2) The antigen (the extracellular domain protein of TF) was diluted to 0.5 μg/mL with a coating solution, and was used to coat an ELISA plate overnight, at 100 μL/well and 4° C. The excessive antigen was removed by washing. The plate was blocked with 2% BSA at room temperature for 2 h, and then each of the 3-fold serial diluted monoclonal antibodies was added at 100 μL/well, and was incubated for 2 h at room temperature. The unbound antibodies were removed by washing, and an appropriate concentration of horseradish peroxidase-labeled anti-mouse secondary antibody was added at 100 μL/well, and incubated for 1 h at room temperature. The unbound secondary antibody was removed by washing, TMB chromogenic solution was added, and the color was developed to an appropriate color depth. 2M H₂SO₄ was added at 50 μL/well, to stop the chromogenic reaction, the absorbance at 450 nm was then determined, and the data was analyzed.

[7] = molecular target: T2, human TF on the cell surface of tumor …; experiment: flow cytometry on HCC1806 cells
[8] = molecular target: T3, extracellular domain of human TF protein; experiment: ELISA, coated TF extracellular domain; remark: listed apart in the source
Procedure: as §2
Firstly, the 20 humanized antibodies were determined for their affinity for the extracellular domain protein of TF by ELISA binding assay (The experimental method refers to Step \textcircled{4} of Example 1).

[9] = molecular target: T2, human TF on the cell surface of tumor …; experiment: flow cytometry on MDA-MB-231 cells, antibody at 1 µg/mL
Procedure: as §1

[10] = molecular target: T2, human TF on the cell surface of tumor …; experiment: flow cytometry on MDA-MB-231 cells, antibody at 10 µg/mL; set-up: reference not given here
Procedure: as §1

Row | IC50 of inhibiting FXa production (BxPC-3 cells) [1] [nM] | IC50 of inhibiting FXa production (MDA-MB-231 cells) [1] [nM] | EC50 [2] [nM] | EC50 [3] [nM] | binding result [4] | EC50 [5] [nM] | EC50 [6] [nM] | EC50 [7] [nM] | EC50 [8] [nM] | MFI [9] | MFI [10] | Binder
1 | 9 | 6.4 | 1.6 | 2.6 | no binding (tested: 10 µg/mL) | 2.5 | ~0.019 | – | – | – | – | TF-mAb-SC1 (antibody, V domains shown) VH: QVQLQQPGAELVRPGASVKLSCKASGYSFISYWMNWVKQRPGQGLEWIGMIYPADSETRLNQKFKDKATLTVDKSSSTAYMQLSSPTSEDSAVYYCAREDYGSSDYWGQGTTLTVSS VL: EILLTQSPAIIAASPGEKVTITCSASSSVSYMNWYLQKPGSSPKIWIYGISNLASGVPARFSGSGSGTSFSFTINSMETEDVATYYCQQKSSFPWTFGGGTKLEIK
2 | – | – | – | – | – | – | – | – | 0.0119 | 3120 | 3410 | TF-mAb-H46 (antibody, V domains shown, Humanized) VH: EVQLVQSGAEVKKPGESLKISCKGSGYSFTSYWMNWVKQMPGKGLEWMGMIYPADSETRLNQKFKDKATLSVDKSISTAYLQWSSLKASDTAMYYCAREDYGSSDYWGQGTTVTVSS VL: EIVLTQSPDFQSVTPKEKVTITCSASSSVSYMNWYQQKPDQSPKIWIYGISNLASGVPSRFSGSGSGTDFTLTINSLEAEDAATYYCQQKSSFPWTFGGGTKVEIK
3 | – | – | – | – | – | – | – | – | 0.0153 | 2610 | 2900 | TF-mAb-H48 (antibody, V domains shown, Humanized) VH: QVQLVQSGSELKKPGASVKVSCKASGYSFISYWMNWVRQAPGQGLEWIGMIYPADSETRLNQKFKDRAVLSVDKSVSTAYLQICSLKAEDTAVYYCAREDYGSSDYWGQGTTVTVSS VL: EIVLTQSPDFQSVTPKEKVTITCSASSSVSYMNWYQQKPDQSPKIWIYGISNLASGVPSRFSGSGSGTDFTLTINSLEAEDAATYYCQQKSSFPWTFGGGTKVEIK

Second part, the binder before the results:

Row | Binder | IC50 of inhibiting FXa production (BxPC-3 cells) [1] [nM] | IC50 of inhibiting FXa production (MDA-MB-231 cells) [1] [nM] | EC50 [2] [nM] | EC50 [3] [nM] | binding result [4] | EC50 [5] [nM] | EC50 [6] [nM] | EC50 [7] [nM] | EC50 [8] [nM] | MFI [9] | MFI [10]
4 | TF-mAb-Ch (antibody, V domains shown, Variable regions of TF-mAb-SC1 cloned into vectors with human IgG1 heavy chain constant region and human kappa constant region; also called human-mouse chimeric antibody; chimeric antibody TF-mAb-Ch) VH: QVQLQQPGAELVRPGASVKLSCKASGYSFISYWMNWVKQRPGQGLEWIGMIYPADSETRLNQKFKDKATLTVDKSSSTAYMQLSSPTSEDSAVYYCAREDYGSSDYWGQGTTLTVSS VL: EILLTQSPAIIAASPGEKVTITCSASSSVSYMNWYLQKPGSSPKIWIYGISNLASGVPARFSGSGSGTSFSFTINSMETEDVATYYCQQKSSFPWTFGGGTKLEIK | – | – | – | – | – | 2.3 | ~0.011 | 2.1 | 0.01 | 3370 | 3540
5 | TF-mAb-H47 (antibody, V domains shown, Humanized) VH: QVQLVQSGAEVKKPGASVKVSCKASGYSFISYWMNWVRQAPGQGLEWIGMIYPADSETRLNQKFKDRATLTVDKSTSTAYMELSSLRSEDTAVYYCAREDYGSSDYWGQGTTVTVSS VL: EIVLTQSPDFQSVTPKEKVTITCSASSSVSYMNWYQQKPDQSPKIWIYGISNLASGVPSRFSGSGSGTDFTLTINSLEAEDAATYYCQQKSSFPWTFGGGTKVEIK | – | – | – | – | – | – | – | – | 0.013 | 3000 | 3150
